“And” between values parts separate entries of the source, which are not always exact repeats. Equal values may be shown once.
How the values were obtained:
Format in all cases: biochemical
[1] = NicA2 Michaelis-Menten assay (LC-MS)
Method: NicA2 activity was determined by LC-MS using Agilent 1260 Infinity liquid chromatography system with 6130 quadrupole mass spectrometry. 20 μl of each sample was injected to a Poroshell 120 EC-C8 column (4.6×50 mm, 2.7 μm, Agilent Technologies) subjected to a gradient (A to B where A=0.1% formic acid in water and B=0.1% formic acid in acetonitrile) of 0% B for 3 min, 0% B to 100% B from 3 to 7 min, and 100% B from 7 to 10 min at a constant flow rate of 0.5 ml/min. A column-solvent equilibration time of 3 min was conducted prior to next sample analysis. MS operational parameters were: API-ES mode, channel 1 (90%) positive single ion monitoring (SIM) of m/z 179 (30%), 161 (30%), 166 (30%) and 163 (10%), corresponding to the M+ peak of the reaction products, labeled internal standard and substrate respectively and channel 2 (10%) scan for positive ions; nitrogen as a nebulizing and drying gas (35 psi, 12 L/min), HV capillary voltage at 4 kV and the drying gas temperature to 300° C. To protect the detector from salts in the buffer, MS was turned on with a delay 1.4 min after injection.
Nicotine was solubilized in ddH2O to a concentration of 10 mM as stock and diluted with HEPES buffer (50 mM, pH=7.4) in the assay. Then 100 μL nicotine solution was mixed with 100 μL NicA2 solution to obtain final concentrations of 0.0625, 0.125, 0.25, 0.5, 1, 2 […] and 10 nM NicA2. After incubating at room temperature for 20 min, 20 μL nicotine methyl D-3 (2 μM in 20% TFA/H2O) solution was added to the mixture as an internal standard and to quench the reaction as well. The samples were injected into the LC-MS for analysis.
For standard curve generation, 0.03125, 0.0625, 0.125, 0.25, 0.5, 1, 2 μM nicotine and 0.4 μM NicA2 was tested and incubated for 2 h for complete oxidation of nicotine.
For the assay at 37° C., all the operations were undertaken in a warm room (37° C.) and solutions were pre-warmed to 37° C. Subsequently protocols were followed as described, vide supra.
Raw data was obtained with Agilent ChemStation, ions with m/z 179,161 (products), 166 (internal standard), 163 (nicotine) were extracted from MS channel 1 (SIM). The area of each peak was integrated and divided by internal standard (IS).
Data was further analyzed with Prism 6.0. For standard curves, the ratios of products to IS were plotted against concentrations of converted nicotine and fitted with linear regression. For experiment data, the ratios were fitted to the standard curves to obtain converted nicotine concentration, and then divided by reaction time (20 min) to get v0. These v0 were plotted against substrate nicotine concentrations using he Michaelis-Menten model to obtain Km and Vmax.
Upon reaction of nicotine with NicA2, three products were observed by LC-MS, one with m/z 179 (4) and two inseparable nicotine metabolites with m/z 161 (1 and 2, FIG. 2). Due to the limitation of instrument sensitivity and the dynamic equilibration of the products, direct quantification of the enzyme's efficiency was challenging. To compensate for these shortcomings, the product peaks 1, 2 and 4 were integrated in order to back-calculate the amount of nicotine consumed by NicA2. Standard curves were generated wherein nicotine was fully oxidized by NicA2 and the m/z 161/179 signals were plotted against a change in nicotine concentration, to provide a direct linear relationship (FIG. 3). The kinetic parameters of the enzyme were thus accurately determined.
To determine kinetic parameters of the enzyme, curves were generated at varying nicotine concentrations utilizing 10 nM NicA2 at room temperature. Samples were analyzed by LC-MS using nicotine (methyl-D3) as an internal standard. Target m/z values (161, 179 and 166) were extracted, integrated and fit to obtain the velocity, v0.

[2] = NicA2 degradation of nicotine in mouse serum; settings: 125, 250, 500 nM nicotine, 20 nM NicA2, mouse serum, 30 min
Method: FIGS. 5A-5D illustrate the stability of the NicA2 enzyme. FIG. 5A graphically illustrates the thermal stability of the NicA2 enzyme as a function of temperature. FIG. 5B illustrates the stability of NicA2 at 37° C. in HEPES buffer (pH=7.4) as a function of time. […] FIG. 5C illustrates the stability of NicA2 in mouse serum at 37° C. over time. FIG. 5D graphically illustrates the ability of NicA2 to degrade nicotine in mouse serum. Concentrations of 125, 250, 500 nM nicotine with and without enzyme (20 nM NicA2) were incubated in serum for 30 min. Residual nicotine remaining after this time period was measured.
As a means to test NicA2's efficiency “in vivo”, nicotine was doped with or without enzyme in serum (FIG. 5D). […] To further substantiate a conclusion that NicA2 can remove nicotine in vivo, NicA2's catabolism of nicotine was simulated based upon foregoing kinetic constants that were determined. NicA2 specificity constant is approximately 10^5 M^−1s^−1 and while clearly far from a perfect enzyme (10^8-10^9 M^−1s^−1).

[3] = In vitro NicA2 activity in rat serum at physiologically relevant nicotine levels; settings: for % Reduction in nicotine levels in vitro: rat serum, 37° C.
Method: NicA2 was diluted in rat serum (controls: serum without NicA2) to give a final concentration of 400 nM, 200 nM, and 20 nM. Nicotine was diluted in 50 mM HEPES pH 7.5 to give final amounts of 640, […], 80, 40, 20, 10, 5 and 2.5 ng (spanning a nicotine concentration range of 3.2 μg/ml to 12.5 ng/ml). The diluted NicA2 in serum and diluted nicotine were mixed 1:1 after pre-equilibration at 37° C. and 5 min (in 200 μl total). After 4 minutes or 20 minutes, reactions were diluted and quenched by addition of 800 μl H2O+500 μl 2M NaOH/0.2M NH4OH. At the highest NicA2 concentration (400 nM) initial plasma nicotine levels of 25 and 50 ng/ml dropped to <2 ng/ml at 4 min. (Table A).

B1: NicA2: flavin-containing nicotine-degrading enzyme of Pseudomonas putida S16, amino acid sequence SEQ ID NO:1 (protein)
chain: MSDKTKTNEGFSRRSFIGSAAVVTAGVAGLGAIDAASATQKTNRASTVKGGFDYDVVVVGGGFAGATAARECGLQGYRTLLLEARSRLGGRTFTSRFAGQEIEFGGAWVHWLQPHVWAEMQRYGLGVVEDPLTNLDKTLIMYNDGSVESISPDEFGKNIRIAFEKLCHDAWEVFPRPHEPMFTERARELDKSSVLDRIKTLGLSRLQQAQINSYMALYAGETTDKFGLPGVLKLFACGGWNYDAFMDTETHYRIQGGTIGLINAMLTDSGAEVRMSVPVTAVEQVNGGVKIKTDDDEIITAGVVVMTVPLNTYKHIGFTPALSKGKQRFIKEGQLSKGAKLYVHVKQNLGRVFAFADEQQPLNWVQTHDYSDELGTILSITIARKETIDVNDRDAVTREVQKMFPGVEVLGTAAYDWTADPFSLGAWAAYGVGQLSRLKDLQAAEGRILFAGAETSNGWHANIDGAVESGLRAGREVKQLLS
modifications: His tag
[1]
  specificity constant: approximately 10^5 M^−1s^−1
[1]; 37° C.
  Km: 0.092 µM and 0.0919 µM
  kcat: (1.32±0.04)×10^−2 s^−1
[1]; room temperature, m/z 161
  kcat: (7.02 ± 0.23) × 10^−3 s^−1
[1]; room temperature, m/z 161, 10 nM NicA2
  Km: 0.0462 ± 0.0064 µM
[1]; room temperature, m/z 179
  kcat: (6.64 ± 0.17) × 10^−3 s^−1
[1]; room temperature, m/z 179, 10 nM NicA2
  Km: 0.043 µM and 0.0435 µM
[2]
  nicotine consumed in serum: consumed all nicotine
[3]; 20 nM NicA2, nicotine 25 ng/ml
  % Reduction in nicotine levels in vitro: 17%
[3]; 20 nM NicA2, nicotine 50 ng/ml
  % Reduction in nicotine levels in vitro: 8%
[3]; 20 nM NicA2, nicotine 100 ng/ml
  % Reduction in nicotine levels in vitro: 4%
[3]; 200 nM NicA2, nicotine 25 ng/ml
  % Reduction in nicotine levels in vitro: 100%
[3]; 200 nM NicA2, nicotine 50 ng/ml
  % Reduction in nicotine levels in vitro: 100%
[3]; 200 nM NicA2, nicotine 100 ng/ml
  % Reduction in nicotine levels in vitro: 72%
[3]; 400 nM NicA2, initial nicotine 25 and 50 ng/ml, at 4 min
  nicotine level remaining: < 2 ng/mL
[3]; 400 nM NicA2, nicotine 25 ng/ml
  % Reduction in nicotine levels in vitro: 100%
[3]; 400 nM NicA2, nicotine 50 ng/ml
  % Reduction in nicotine levels in vitro: 100%
[3]; 400 nM NicA2, nicotine 100 ng/ml
  % Reduction in nicotine levels in vitro: 94%

From US20190015484A1, “NICOTINE-DEGRADING ENZYMES FOR TREATING NICOTINE ADDICTION AND NICOTINE POISONING” (priority 2015, published 2019)
